# T1: human acid-sensing ion channel 1a (hASIC1a), full-length, wild type (human, UniProt P78348-2 1-528)
# T1 sequence (looked up): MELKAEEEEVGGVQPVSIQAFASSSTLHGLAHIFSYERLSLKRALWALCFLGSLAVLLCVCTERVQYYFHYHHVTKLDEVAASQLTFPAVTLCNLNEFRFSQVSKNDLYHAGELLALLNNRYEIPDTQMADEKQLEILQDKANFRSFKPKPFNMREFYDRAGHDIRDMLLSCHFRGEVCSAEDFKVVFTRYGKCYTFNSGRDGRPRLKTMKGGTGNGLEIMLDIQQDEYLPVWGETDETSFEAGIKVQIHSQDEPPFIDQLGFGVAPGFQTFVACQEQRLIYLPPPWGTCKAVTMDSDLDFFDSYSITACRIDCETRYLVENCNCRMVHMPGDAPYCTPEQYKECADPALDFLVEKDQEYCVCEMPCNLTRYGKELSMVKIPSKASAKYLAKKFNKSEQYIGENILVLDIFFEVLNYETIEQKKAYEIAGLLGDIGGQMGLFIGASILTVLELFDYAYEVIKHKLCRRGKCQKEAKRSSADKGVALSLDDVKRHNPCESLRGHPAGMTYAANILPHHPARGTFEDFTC
# T2: chicken acid-sensing ion channel 1 (cASIC1), full-length (chicken, UniProt Q1XA76 1-527)
# T2 sequence (looked up): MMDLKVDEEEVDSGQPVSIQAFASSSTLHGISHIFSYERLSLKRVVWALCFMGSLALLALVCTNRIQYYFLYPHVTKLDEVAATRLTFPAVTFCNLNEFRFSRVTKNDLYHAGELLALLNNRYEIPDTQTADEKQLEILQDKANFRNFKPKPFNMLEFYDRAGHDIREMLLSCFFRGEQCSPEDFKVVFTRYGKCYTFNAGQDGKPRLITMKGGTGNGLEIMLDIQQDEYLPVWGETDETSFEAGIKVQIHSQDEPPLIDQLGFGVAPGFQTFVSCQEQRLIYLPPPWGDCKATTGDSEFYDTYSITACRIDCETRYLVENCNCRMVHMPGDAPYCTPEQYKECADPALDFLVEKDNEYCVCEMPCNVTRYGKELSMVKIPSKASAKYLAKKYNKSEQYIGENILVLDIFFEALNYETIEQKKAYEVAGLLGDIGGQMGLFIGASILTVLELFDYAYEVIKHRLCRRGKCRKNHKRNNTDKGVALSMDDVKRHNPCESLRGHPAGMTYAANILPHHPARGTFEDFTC
# B1: truncated human acid-sensing ion channel 1a with the 60 carboxyl terminal residues removed (hASIC1a^ΔC) (domain or fragment)
# chain: MELKAEEEEVGGVQPVSIQAFASSSTLHGLAHIFSYERLSLKRALWALCFLGSLAVLLCVCTERVQYYFHYHHVTKLDEVAASQLTFPAVTLCNLNEFRFSQVSKNDLYHAGELLALLNNRYEIPDTQMADEKQLEILQDKANFRSFKPKPFNMREFYDRAGHDIRDMLLSCHFRGEVCSAEDFKVVFTRYGKCYTFNSGRDGRPRLKTMKGGTGNGLEIMLDIQQDEYLPVWGETDETSFEAGIKVQIHSQDEPPFIDQLGFGVAPGFQTFVACQEQRLIYLPPPWGTCKAVTMDSDLDFFDSYSITACRIDCETRYLVENCNCRMVHMPGDAPYCTPEQYKECADPALDFLVEKDQEYCVCEMPCNLTRYGKELSMVKIPSKASAKYLAKKFNKSEQYIGENILVLDIFFEVLNYETIEQKKAYEIAGLLGDIGGQMGLFIGASILTVLELFDYAYEVIKHKLCRR
# notes: Trimer in the cryo-EM structures; […]; also called apo-hASIC1a^ΔC
# Assays:
# [1] = target: B1; experiment: cryo-EM structure; hASIC1a^ΔC-Mamba1 complex, toxin added in a 6:1 molar ratio of toxin to channel, 1 hr at 4°C, 20 mM Tris pH 8.0, 200 mM NaCl, 0.05% DDM, 0.01% CHS; 3.1 mg/ml; 3.90 Å; conditions: both partners purified
# [2] = target: T1, human acid-sensing ion channel 1a …; experiment: cell-based or functional assay
# [3] = target: T2, chicken acid-sensing ion channel 1 …; experiment: cell-based or functional assay
# [4] = target: the molecule itself; experiment: cryo-EM structure; apo-hASIC1a^ΔC, single-particle cryo-EM, 2.7 mg/ml, 20 mM Tris pH 8.0, 200 mM NaCl, 0.05% DDM, 0.01% CHS; C3 symmetry imposed; 3.56 Å
Binder,stoichiometry N [1],"IC50 of inhibition of acid-evoked (pH 6.0) currents, whole-cell patch clamp, full-length hASIC1a in CHO cells [2]","IC50 of inhibition of full-length hASIC1a in CHO cells ('the reported IC50', Figure 1b) [2]","IC50 of inhibition of acid-evoked (pH 6.0) currents, whole-cell patch clamp, full-length cASIC1 in CHO cells [3]",stoichiometry N [4]
Mambalgin1 (Mamba1) (also called wild-type Mamba1) LKCYQHGKVVTCHRDMKFCYHNTGMPFRNLKLILQGCSSSCSETENNKCCSTDRCNK,1 Mamba1 per hASIC1a^ΔC subunit,197 nM,149 nM,124 nM,–
B1,–,–,–,–,3

# — paper PMC7553779 (eLife, 2020)
